Tests used:
[1] = fold lower affinity than FGF-2; cited from earlier work
From the text: In our present study, we wanted to explore the potential of CXCL9(74-103), a high affinity GAG-binding peptide, to interfere with angiogenesis by targeting growth factor-induced signaling cascades and associated processes. […] The obtained KD value lies within the range of the concentrations that were applied in the different in vivo and in vitro assays reported here. FGF-2-mediated proliferation, chemotaxis and sprouting in vitro was diminished by CXCL9(74-103). Also in vivo, CXCL9(74-103) treatment attenuated FGF-2-mediated neovascularization in the Matrigel plug assay. The inhibitory mechanism responsible for countering FGF-2 could be that (1) by direct interaction with FGF-2, CXCL9(74-103) can t ...

[2] = test system: human microvascular endothelial cells (HMVECs); test: xCELLigence adhesion assay; format: cell-based; settings: 50 ng/mL, 1 h, compared to untreated cells
Protocol: The wells of an E-plate (ACEA Biosciences, Inc.) were washed and coated with 0.1% (v/v) gelatin in phosphate-buffered saline (PBS) at 37 °C for 1 h. Following a washing step, wells were incubated with 0.1% (v/v) bovine serum albumin (BSA) in PBS at 37 °C for 1 h. After washing, 50 µL basal MCDB131 medium was added and the plate was allowed to equilibrate at 37 °C. HMVECs were harvested and seeded at 4 × 10^4 cells/well together with 50 ng/mL VEGF165 with or without 0.03, 0.3 or 3 µM of CXCL9(74-103) or 3 µM of CXCL9(86-103) in 100 µL control medium (vide supra). Real-time changes in electrical impedance depicted as cell indices, as measure for cell adhesion and spreading, were analyzed using the xCELLigence® RTCA DP System. The adhesion of HMVECs was analyzed 1 h after seeding.

[3] = test system: human microvascular endothelial cells (HMVECs); test: xCELLigence chemotaxis assay (HMVEC migration); format: cell-based; settings: EGF 10 ng/mL, FGF-2 30 ng/mL or VEGF165 10 ng/mL in lower chamber
Protocol: To evaluate the effect of the CXCL9-derived peptides on growth factor-induced endothelial cell migration, the xCELLigence® real-time cell analyzer (RTCA DP) system (ACEA Biosciences, Inc.; San Diego, CA, USA) was used. First, 160 µL MCDB131 medium (Gibco) supplemented with 0.4% (v/v) FCS (control medium) or 160 µL control medium with 30 ng/mL FGF-2, 10 ng/mL VEGF165 or 10 ng/mL EGF were added to the lower chamber of a cell invasion/migration (CIM)-Plate (ACEA Biosciences, Inc.). After assembly of the lower and upper chamber, 50 µL of serum-free MCDB131 medium was added in the upper wells. Following equilibration of the plate at 37 °C for 1 h, HMVECs were added in the upper chamber at 4 × 10^4 cells in 100 µL/well. CXCL9(74-103) or CXCL9(86-103) was added together with the cells in the upper compartment at a concentration of 0.3 or 3 µM. The assembled CIM-Plate was left at room temperature for 30 min to allow the cells to settle onto the membrane. Finally, the plate was placed in the instrument at 37 °C to monitor cell migration for 15 h. Cell migration from one compartment to the other was recorded (one recording every minute) as changes in electrical impedance. These changes were converted into cell indices, as a measure of cell migration.

[4] = test system: human microvascular endothelial cells (HMVECs); test: Endothelial cell proliferation assay (MTT or ATP lite); format: cell-based; settings: EGF, VEGF165 5 ng/mL or FGF-2 3 ng/mL as single stimulus
Protocol: The ability of the CXCL9-derived peptides to inhibit growth factor-induced proliferation of endothelial cells was assessed. HMVECs were seeded at 5 × 10^3 cells/well in EBM™-2 medium containing 1% (v/v) FCS (proliferation medium). After settling of the cells, they were stimulated with EGF, VEGF165 (both 5 ng/mL) or FGF-2 (3 ng/mL) as a single stimulus or in combination with CXCL9(86-103) or CXCL9(74-103) at 0.3 or 3 µM in proliferation medium or left untreated. HMVECs were also treated with 0.3 or 3 µM of CXCL9(74-103) or 3 µM of CXCL9(86-103) alone to assess the effect of CXCL9-derived peptide treatment on spontaneous proliferation. After 3 to 4 days, a 3-(4,5-dimethylthiazol-2-yl)-2,5-diphenyl tetrazolium bromide (MTT) or ATP lite assay was performed. The ATP lite assay was performed according to the manufacturer’s instructions (Perkin Elmer, Waltham, MA). When MTT was used as substrate, the medium was replaced with 200 µL of MTT solution (RPMI without phenol red containing 0.4 g/L MTT) and the cells were incubated at 37 °C and 5% CO2 in the dark for 4 hours. Then, the MTT solution was discarded and the formed formazan crystals were dissolved in 200 µL acidic propanol [0.04 M HCl, 0.1% (v/v) NP-40 in isopropanol] under continuous shaking in the dark for 10 min. The optical densities were measured at 570 nm and 630 nm (reference wavelength).

B1: VEGF165: human recombinant VEGF165 (Biolegend), stimulus (protein)
chain: MNFLLSWVHWSLALLLYLHHAKWSQAAPMAEGGGQNHHEVVKFMDVYQRSYCHPIETLVDIFQEYPDEIEYIFKPSCVPLMRCGGCCNDEGLECVPTEESNITMQIMRIKPHQGQHIGEMSFLQHNKCECRPKKDRARQENPCGPCSERRKHLFVQDPQTCKCSCKNTDSRCKARQLELNERTCRCDKPRR
- affinity for heparin compared to FGF-2 [1]: 8 fold
- adhesion in response to VEGF165 alone [2]: HMVECs adhered more profoundly to the substratum compared to untreated cells
- enhancement of migration by growth factor alone [3]: significant enhancement of endothelial cell migration
- enhancement of proliferation by growth factor alone [4]: significant enhancement of proliferation
